Laboratory results published in US20230407373A1 (priority 2020, published 2023).
Read-outs that look alike come from different tables or passages of the source.

B1: DDX21 (protein, UniProt Q9NR30 1-783, looked up)
Nucleolar RNA helicase 2: MPGKLRSDAGLESDTAMKKGETLRKQTEEKEKKEKPKSDKTEEIAEEEETVFPKAKQVKKKAEPSEVDMNSPKSKKAKKKEEPSQNDISPKTKSLRKKKEPIEKKVVSSKTKKVTKNEEPSEEEIDAPKPKKMKKEKEMNGETREKSPKLKNGFPHPEPDCNPSEAASEESNSEIEQEIPVEQKEGAFSNFPISEETIKLLKGRGVTFLFPIQAKTFHHVYSGKDLIAQARTGTGKTFSFAIPLIEKLHGELQDRKRGRAPQVLVLAPTRELANQVSKDFSDITKKLSVACFYGGTPYGGQFERMRNGIDILVGTPGRIKDHIQNGKLDLTKLKHVVLDEVDQMLDMGFADQVEEILSVAYKKDSEDNPQTLLFSATCPHWVFNVAKKYMKSTYEQVDLIGKKTQKTAITVEHLAIKCHWTQRAAVIGDVIRVYSGHQGRTIIFCETKKEAQELSQNSAIKQDAQSLHGDIPQKQREITLKGFRNGSFGVLVATNVAARGLDIPEVDLVIQSSPPKDVESYIHRSGRTGRAGRTGVCICFYQHKEEYQLVQVEQKAGIKFKRIGVPSATEIIKASSKDAIRLLDSVPPTAISHFKQSAEKLIEEKGAVEALAAALAHISGATSVDQRSLINSNVGFVTMILQCSIEMPNISYAWKELKEQLGEEIDSKVKGMVFLKGKLGVCFDVPTASVTEIQEKWHDSRRWQLSVATEQPELEGPREGYGGFRGQREGSRGFRGQRDGNRRFRGQREGSRGPRGQRSGGGNKSNRSQNKGQKRSFSKAFGQ
B2: BAZ1B (protein, UniProt Q9UIG0 1-1483, looked up)
Tyrosine-protein kinase BAZ1B: MAPLLGRKPFPLVKPLPGEEPLFTIPHTQEAFRTREEYEARLERYSERIWTCKSTGSSQLTHKEAWEEEQEVAELLKEEFPAWYEKLVLEMVHHNTASLEKLVDTAWLEIMTKYAVGEECDFEVGKEKMLKVKIVKIHPLEKVDEEATEKKSDGACDSPSSDKENSSQIAQDHQKKETVVKEDEGRRESINDRARRSPRKLPTSLKKGERKWAPPKFLPHKYDVKLQNEDKIISNVPADSLIRTERPPNKEIVRYFIRHNALRAGTGENAPWVVEDELVKKYSLPSKFSDFLLDPYKYMTLNPSTKRKNTGSPDRKPSKKSKTDNSSLSSPLNPKLWCHVHLKKSLSGSPLKVKNSKNSKSPEEHLEEMMKMMSPNKLHTNFHIPKKGPPAKKPGKHSDKPLKAKGRSKGILNGQKSTGNSKSPKKGLKTPKTKMKQMTLLDMAKGTQKMTRAPRNSGGTPRTSSKPHKHLPPAALHLIAYYKENKDREDKRSALSCVISKTARLLSSEDRARLPEELRSLVQKRYELLEHKKRWASMSEEQRKEYLKKKREELKKKLKEKAKERREKEMLERLEKQKRYEDQELTGKNLPAFRLVDTPEGLPNTLFGDVAMVVEFLSCYSGLLLPDAQYPITAVSLMEALSADKGGFLYLNRVLVILLQTLLQDEIAEDYGELGMKLSEIPLTLHSVSELVRLCLRRSDVQEESEGSDTDDNKDSAAFEDNEVQDEFLEKLETSEFFELTSEEKLQILTALCHRILMTYSVQDHMETRQQMSAELWKERLAVLKEENDKKRAEKQKRKEMEAKNKENGKVENGLGKTDRKKEIVKFEPQVDTEAEDMISAVKSRRLLAIQAKKEREIQEREMKVKLERQAEEERIRKHKAAAEKAFQEGIAKAKLVMRRTPIGTDRNHNRYWLFSDEVPGLFIEKGWVHDSIDYRFNHHCKDHTVSGDEDYCPRSKKANLGKNASMNTQHGTATEVAVETTTPKQGQNLWFLCDSQKELDELLNCLHPQGIRESQLKERLEKRYQDIIHSIHLARKPNLGLKSCDGNQELLNFLRSDLIEVATRLQKGGLGYVEETSEFEARVISLEKLKDFGECVIALQASVIKKFLQGFMAPKQKRRKLQSEDSAKTEEVDEEKKMVEEAKVASALEKWKTAIREAQTFSRMHVLLGMLDACIKWDMSAENARCKVCRKKGEDDKLILCDECNKAFHLFCLRPALYEVPDGEWQCPACQPATARRNSRGRNYTEESASEDSEDDESDEEEEEEEEEEEEEDYEVAGLRLRPRKTIRGKHSVIPPAARSGRRPGKKPHSTRRSQPKAPPVDDAEVDELVLQTKRSSRRQSLELQKCEEILHKIVKYRFSWPFREPVTRDEAEDYYDVITHPMDFQTVQNKCSCGSYRSVQEFLTDMKQVFTNAEVYNCRGSHVLSCMVKTEQCLVALLHKHLPGHPYVRRKRKKFPDRLAEDEGDSEPEAVGQSRGRRQKK
B3: PKP1 (protein, UniProt Q13835 1-747, looked up)
Plakophilin-1: MNHSPLKTALAYECFQDQDNSTLALPSDQKMKTGTSGRQRVQEQVMMTVKRQKSKSSQSSTLSHSNRGSMYDGLADNYNYGTTSRSSYYSKFQAGNGSWGYPIYNGTLKREPDNRRFSSYSQMENWSRHYPRGSCNTTGAGSDICFMQKIKASRSEPDLYCDPRGTLRKGTLGSKGQKTTQNRYSFYSTCSGQKAIKKCPVRPPSCASKQDPVYIPPISCNKDLSFGHSRASSKICSEDIECSGLTIPKAVQYLSSQDEKYQAIGAYYIQHTCFQDESAKQQVYQLGGICKLVDLLRSPNQNVQQAAAGALRNLVFRSTTNKLETRRQNGIREAVSLLRRTGNAEIQKQLTGLLWNLSSTDELKEELIADALPVLADRVIIPFSGWCDGNSNMSREVVDPEVFFNATGCLRKRLGMRELLALVPQRATSSRVNLSSADAGRQTMRNYSGLIDSLMAYVQNCVAASRCDDKSVENCMCVLHNLSYRLDAEVPTRYRQLEYNARNAYTEKSSTGCFSNKSDKMMNNNYDCPLPEEETNPKGSGWLYHSDAIRTYLNLMGKSKKDATLEACAGALQNLTASKGLMSSGMSQLIGLKEKGLPQIARLLQSGNSDVVRSGASLLSNMSRHPLLHRVMGNQVFPEVTRLLTSHTGNTSNSEDILSSACYTVRNLMASQPQLAKQYFSSSMLNNIINLCRSSASPKAAEAARLLLSDMWSSKELQGVLRQQGFDRNMLGTLAGANSLRNFTSRF
B4: KRT1 (protein, UniProt P04264 2-644, looked up)
Keratin, type II cytoskeletal …: SRQFSSRSGYRSGGGFSSGSAGIINYQRRTTSSSTRRSGGGGGRFSSCGGGGGSFGAGGGFGSRSLVNLGGSKSISISVARGGGRGSGFGGGYGGGGFGGGGFGGGGFGGGGIGGGGFGGFGSGGGGFGGGGFGGGGYGGGYGPVCPPGGIQEVTINQSLLQPLNVEIDPEIQKVKSREREQIKSLNNQFASFIDKVRFLEQQNQVLQTKWELLQQVDTSTRTHNLEPYFESFINNLRRRVDQLKSDQSRLDSELKNMQDMVEDYRNKYEDEINKRTNAENEFVTIKKDVDGAYMTKVDLQAKLDNLQQEIDFLTALYQAELSQMQTQISETNVILSMDNNRSLDLDSIIAEVKAQYEDIAQKSKAEAESLYQSKYEELQITAGRHGDSVRNSKIEISELNRVIQRLRSEIDNVKKQISNLQQSISDAEQRGENALKDAKNKLNDLEDALQQAKEDLARLLRDYQELMNTKLALDLEIATYRTLLEGEESRMSGECAPNVSVSVSTSHTTISGGGSRGGGGGGYGSGGSSYGSGGGSYGSGGGGGGGRGSYGSGGSSYGSGGGSYGSGGGGGGHGSYGSGSSSGGYRGGSGGGGGGSSGGRGSGGGSSGGSIGGRGSSSGGVKSSGGSSSVKFVSTTYSGVTR
B5: RBFOX2 (protein, UniProt O43251 1-390, looked up)
RNA binding protein fox-1 …: MQNEPLTPGYHGFPARDSQGNQEPTTTPDAMVQPFTTIPFPPPPQNGIPTEYGVPHTQDYAGQTGEHNLTLYGSTQAHGEQSSNSPSTQNGSLTTEGGAQTDGQQSQTQSSENSESKSTPKRLHVSNIPFRFRDPDLRQMFGQFGKILDVEIIFNERGSKGFGFVTFENSADADRAREKLHGTVVEGRKIEVNNATARVMTNKKMVTPYANGWKLSPVVGAVYGPELYAASSFQADVSLGNDAAVPLSGRGGINTYIPLISLPLVPGFPYPTAATTAAAFRGAHLRGRGRTVYGAVRAVPPTAIPAYPGVVYQDGFYGADLYGGYAAYRYAQPATATAATAAAAAAAAYSDGYGRVYTADPYHALAPAASYGVGAVASLYRGGYSRFAPY
B6: MTDH (protein, UniProt Q86UE4 1-582, looked up)
Protein LYRIC: MAARSWQDELAQQAEEGSARLREMLSVGLGFLRTELGLDLGLEPKRYPGWVILVGTGALGLLLLFLLGYGWAAACAGARKKRRSPPRKREEAAAVPAAAPDDLALLKNLRSEEQKKKNRKKLSEKPKPNGRTVEVAEGEAVRTPQSVTAKQPPEIDKKNEKSKKNKKKSKSDAKAVQNSSRHDGKEVDEGAWETKISHREKRQQRKRDKVLTDSGSLDSTIPGIENTITVTTEQLTTASFPVGSKKNKGDSHLNVQVSNFKSGKGDSTLQVSSGLNENLTVNGGGWNEKSVKLSSQISAGEEKWNSVSPASAGKRKTEPSAWSQDTGDANTNGKDWGRSWSDRSIFSGIGSTAEPVSQSTTSDYQWDVSRNQPYIDDEWSGLNGLSSADPNSDWNAPAEEWGNWVDEERASLLKSQEPIPDDQKVSDDDKEKGEGALPTGKSKKKKKKKKKQGEDNSTAQDTEELEKEIREDLPVNTSKTRPKQEKAFSLKTISTSDPAEVLVKNSQPIKTLPPATSTEPSVILSKSDSDKSSSQVPPILQETDKSKSNTKQNSVPPSQTKSETSWESPKQIKKKKKARRET
B7: KRT14 (protein, UniProt P02533 1-472, looked up)
Keratin, type I cytoskeletal …: MTTCSRQFTSSSSMKGSCGIGGGIGGGSSRISSVLAGGSCRAPSTYGGGLSVSSSRFSSGGACGLGGGYGGGFSSSSSSFGSGFGGGYGGGLGAGLGGGFGGGFAGGDGLLVGSEKVTMQNLNDRLASYLDKVRALEEANADLEVKIRDWYQRQRPAEIKDYSPYFKTIEDLRNKILTATVDNANVLLQIDNARLAADDFRTKYETELNLRMSVEADINGLRRVLDELTLARADLEMQIESLKEELAYLKKNHEEEMNALRGQVGGDVNVEMDAAPGVDLSRILNEMRDQYEKMAEKNRKDAEEWFFTKTEELNREVATNSELVQSGKSEISELRRTMQNLEIELQSQLSMKASLENSLEETKGRYCMQLAQIQEMIGSVEEQLAQLRCEMEQQNQEYKILLDVKTRLEQEIATYRRLLEGEDAHLSSSQFSSGSQSSRDVTSSSRQIRTKVMDVHDGKVVSTHEQVLRTKN
B8: KRT6A (protein, UniProt P02538 2-564, looked up)
Keratin, type II cytoskeletal …: ASTSTTIRSHSSSRRGFSANSARLPGVSRSGFSSVSVSRSRGSGGLGGACGGAGFGSRSLYGLGGSKRISIGGGSCAISGGYGSRAGGSYGFGGAGSGFGFGGGAGIGFGLGGGAGLAGGFGGPGFPVCPPGGIQEVTVNQSLLTPLNLQIDPTIQRVRAEEREQIKTLNNKFASFIDKVRFLEQQNKVLETKWTLLQEQGTKTVRQNLEPLFEQYINNLRRQLDSIVGERGRLDSELRGMQDLVEDFKNKYEDEINKRTAAENEFVTLKKDVDAAYMNKVELQAKADTLTDEINFLRALYDAELSQMQTHISDTSVVLSMDNNRNLDLDSIIAEVKAQYEEIAQRSRAEAESWYQTKYEELQVTAGRHGDDLRNTKQEIAEINRMIQRLRSEIDHVKKQCANLQAAIADAEQRGEMALKDAKNKLEGLEDALQKAKQDLARLLKEYQELMNVKLALDVEIATYRKLLEGEECRLNGEGVGQVNISVVQSTVSSGYGGASGVGSGLGLGGGSSYSYGSGLGVGGGFSSSSGRAIGGGLSSVGGGSSTIKYTTTSSSSRKSYKH

Tested on: HCoV-OC43 gRNA and sgRNA
Format: binding
Settings: for target (unweighted spectral count, OC43 Probe II capture): tested against no-probe control, FDR<10%

| Molecule | target (unweighted spectral count, OC43 Probe II capture) (24 hpi, type n_24_v) | target (unweighted spectral count, OC43 Probe II capture) (36 hpi, type n_36_v) | target (unweighted spectral count, OC43 Probe II) (type n_48_v, 48 hpi, OC43 Probe II capture on infected cells) | background (unweighted spectral count, no-probe control) (type n_48_v, 48 hpi, no-probe control on infected cells) |
| --- | --- | --- | --- | --- |
| B1 | 7 |  |  |  |
| B2 | 4 |  |  |  |
| B3 | 4 |  |  |  |
| B4 | 49 |  |  |  |
| B5 | 4 | 4 |  |  |
| B6 | 5 | 6 | 6 | 1 |
| B7 | 7 |  |  |  |
| B8 | 4 |  |  |  |
